# Reference: publication PMC5615199, “Structural Basis for EarP-Mediated Arginine Glycosylation of Translation Elongation Factor EF-P” (mBio, 2017)
# T1: EarPPpu, EarP from Pseudomonas putida KT2440, purified His6-tagged protein (Pseudomonas putida KT2440, UniProt Q88LS1 2-377)
# T1 construct: EarP, Pseudomonas putida KT2440, 43 kDa; domains are told as aa 1-153, 184-361 and 362-377; also called WT^EarP; source: E. coli LMG194 (pBAD33-earPPpu) or E. coli BL21(DE3) (pACYC-DUET-earPPpu), purified (Ni-NTA)
# T1 sequence: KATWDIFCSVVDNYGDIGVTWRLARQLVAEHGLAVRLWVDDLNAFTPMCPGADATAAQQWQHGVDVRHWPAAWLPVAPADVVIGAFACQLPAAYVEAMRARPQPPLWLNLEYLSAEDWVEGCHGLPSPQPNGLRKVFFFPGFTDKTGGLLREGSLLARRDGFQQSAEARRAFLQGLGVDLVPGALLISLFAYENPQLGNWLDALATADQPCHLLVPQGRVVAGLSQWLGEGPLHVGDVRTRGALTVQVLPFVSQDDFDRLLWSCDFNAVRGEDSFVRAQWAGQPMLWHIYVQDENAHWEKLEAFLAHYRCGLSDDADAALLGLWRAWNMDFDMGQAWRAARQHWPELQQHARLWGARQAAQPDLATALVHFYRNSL
# B1: EF-PPpu (translation elongation factor EF-P): coproduction with inactive D13AEarP (protein)
# parent chain: MKTGKELKPGTVLRIDNDPWLVQKAEFTKSGRNSAIMKTKLKNLLTGYKTETVYGADDKLDDVILDRKEATLSFINGDEYTFMDTTDYTMYELNAEDIEAVLPYIEEGMEDVCEAVFFEGRLVSVELPTTISRKVVYTENAARGDTSGKVMKPAKLANGTEISVADFIQIDEWIDIDTRDNSFKGRSKK
# B2: rhamnosylated EF-PPpu (EF-P^Rha), purified (natural protein, Pseudomonas putida, UniProt Q88LS0 1-189, looked up)
# chain: MKTGKELKPGTVLRIDNDPWLVQKAEFTKSGRNSAIMKTKLKNLLTGYKTETVYGADDKLDDVILDRKEATLSFINGDEYTFMDTTDYTMYELNAEDIEAVLPYIEEGMEDVCEAVFFEGRLVSVELPTTISRKVVYTENAARGDTSGKVMKPAKLANGTEISVADFIQIDEWIDIDTRDNSFKGRSKK
# modifications: rhamnosyl-arginine at R32
# notes: translation elongation factor EF-P, Pseudomonas putida, rhamnosylated on arginine 32; 15N-labelled for the NMR titration; also called modified EF-P; source: E. coli, cooverproduced with His6-tagged EarPPpu, purified
# B3: EF-PPpu (translation elongation factor EF-P): coproduction with inactive D17AEarP (protein)
# parent chain: MKTGKELKPGTVLRIDNDPWLVQKAEFTKSGRNSAIMKTKLKNLLTGYKTETVYGADDKLDDVILDRKEATLSFINGDEYTFMDTTDYTMYELNAEDIEAVLPYIEEGMEDVCEAVFFEGRLVSVELPTTISRKVVYTENAARGDTSGKVMKPAKLANGTEISVADFIQIDEWIDIDTRDNSFKGRSKK
# B4: EF-PPpu (translation elongation factor EF-P): coproduction with inactive E273AEarP (protein)
# parent chain: MKTGKELKPGTVLRIDNDPWLVQKAEFTKSGRNSAIMKTKLKNLLTGYKTETVYGADDKLDDVILDRKEATLSFINGDEYTFMDTTDYTMYELNAEDIEAVLPYIEEGMEDVCEAVFFEGRLVSVELPTTISRKVVYTENAARGDTSGKVMKPAKLANGTEISVADFIQIDEWIDIDTRDNSFKGRSKK
# B5: unmodified EF-PPpu, purified, tag-free (natural protein, Pseudomonas putida, UniProt Q88LS0 1-189, looked up)
# chain: MKTGKELKPGTVLRIDNDPWLVQKAEFTKSGRNSAIMKTKLKNLLTGYKTETVYGADDKLDDVILDRKEATLSFINGDEYTFMDTTDYTMYELNAEDIEAVLPYIEEGMEDVCEAVFFEGRLVSVELPTTISRKVVYTENAARGDTSGKVMKPAKLANGTEISVADFIQIDEWIDIDTRDNSFKGRSKK
# notes: translation elongation factor EF-P, Pseudomonas putida; 15N-labelled for the NMR titration (grown in M9 minimal medium); source: E. coli BL21(DE3) (pET-SUMO-efpPpu), purified (Ni-NTA, tag removed with His6-Ulp1)
# B6: EarPPpu (EF-P-arginine rhamnosyltransferase EarP) (Pseudomonas putida KT2440) (protein)
# chain: MKATWDIFCSVVDNYGDIGVTWRLARQLVAEHGLAVRLWVDDLNAFTPMCPGADATAAQQWQHGVDVRHWPAAWLPVAPADVVIGAFACQLPAAYVEAMRARPQPPLWLNLEYLSAEDWVEGCHGLPSPQPNGLRKVFFFPGFTDKTGGLLREGSLLARRDGFQQSAEARRAFLQGLGVDLVPGALLISLFAYENPQLGNWLDALATADQPCHLLVPQGRVVAGLSQWLGEGPLHVGDVRTRGALTVQVLPFVSQDDFDRLLWSCDFNAVRGEDSFVRAQWAGQPMLWHIYVQDENAHWEKLEAFLAHYRCGLSDDADAALLGLWRAWNMDFDMGQAWRAARQHWPELQQHARLWGARQAAQPDLATALVHFYRNSL
# notes: full-length (residues 1 to 377), 43 kDa, His6-tagged (C-terminal from pBAD33-earPPpu, N-terminal from pACYC-DUET for crystallization), expressed in E. coli; monomer
# Experiments:
# [1] = tested on: T2, Cc1cn([C@H]2C[C@H](O)[C@@H](COP(=O)(O)OP(=O)(O)O[C@H]3O[C@@H](C)[C@H](O)[C@@H](O)[C@H]3O)O2)c(=O)[nH]c1=O; assay: Western blot quantification (anti-Arg-Rha) of EF-P rhamnosylation; assay type: biochemical, Pseudomonas putida; settings: co-substrate unmodified P. putida EF-P 2.5 µM, 100 mM NaPi pH 7.6, 30°C
# T2 construct: full-length (residues 1 to 377), 43 kDa, His6-tagged (C-terminal from pBAD33-earPPpu, N-terminal from pACYC-DUET for crystallization), expressed in E. coli; monomer
# [2] = tested on: T2, Cc1cn([C@H]2C[C@H](O)[C@@H](COP(=O)(O)OP(=O)(O)O[C@H]3O[C@@H](C)[C@H](O)[C@@H](O)[C@H]3O)O2)c(=O)[nH]c1=O; assay: as above; assay type: biochemical, Pseudomonas putida; settings: co-substrate unmodified P. putida EF-P 2.5 µM, 0.5 µM EarP, 100 mM NaPi pH 7.6, 30°C
# Description: Western blot quantification (anti-Arg-Rha) of EF-P rhamnosylation on EarPPpu (EF-P-arginine rhamnosyltransferase EarP) | when we measured the kinetics of the F191A^EarP and Y193A^EarP variants
# [3] = PcadBA::lacZ β-galactosidase, E. coli Δefp; settings: glycan lost; control: EF-PPpu coproduced with wild-type EarPPpu
# [4] = target: T1, EarPPpu, EarP from Pseudomonas putida …; assay: NMR titration; 15N-labelled EF-P (150 µM unmodified or 41 µM rhamnosylated) titrated with unlabelled EarP to a 1:2 EF-P/EarP molar ratio, 1H-15N HSQC, 298 K, 100 mM NaPi pH 7.6, 50 mM NaCl, 5 mM DTT; settings: both partners purified
# [5] = substrate: Cc1cn([C@H]2C[C@H](O)[C@@H](COP(=O)(O)OP(=O)(O)O[C@H]3O[C@@H](C)[C@H](O)[C@@H](O)[C@H]3O)O2)c(=O)[nH]c1=O; assay: Western blot quantification (anti-Arg-Rha) of EF-P rhamnosylation; assay type: biochemical, Pseudomonas putida; settings: co-substrate unmodified P. putida EF-P 2.5 µM, 0.1 µM EarP, 100 mM NaPi pH 7.6, 30°C, 20 s
# [6] = lowest-mass SEC fraction of a partly unfolded, aggregating variant
molecule,measurement,setting,value
EarPPpu (EF-P-arginine rhamnosyltransferase EarP) (Pseudomonas putida KT2440; D274A),Km,[1]; [6],206 µM
same,kcat,[1]; [6],0.0123 s⁻¹
EarPPpu (EF-P-arginine rhamnosyltransferase EarP) (Pseudomonas putida KT2440; F191A),Km,[2],810 µM
same,kcat,[2],0.00017 s⁻¹
EarPPpu (EF-P-arginine rhamnosyltransferase EarP) (Pseudomonas putida KT2440; F252A),Km,[1],3400 µM
EarPPpu (EF-P-arginine rhamnosyltransferase EarP) (Pseudomonas putida KT2440; Y193A),Km,[2],760 µM
same,kcat,[2],0.00017 s⁻¹
B1,other: EF-P translational rescue activity (PcadBA activation),[3],abolishes
B2,binding result,[4],binds
B3,other: EF-P translational rescue activity (PcadBA activation),[3],abolishes
B4,other: EF-P translational rescue activity (PcadBA activation),[3],abolishes
B5,binding result,[4],binds
B6,Km,[5],53 µM
same,kcat,[5],0.583 s⁻¹
